{
  "source": "the nanobody polyreactivity screen of Harvey et al. (2022)",
  "data": [
    {"assay": "yeast display, Sf9 membrane polyspecificity reagent, FACS + sequencing; frameworks hold sequencing errors", "procedure,_shortened": "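Synthetic nanobody libraries on Saccharomyces cerevisiae BJ5465 were galactose-induced for 36–48 hours, stained 1 hour at 4 °C with 10% biotinylated, detergent-solubilized Sf9 membrane reagent and enriched on streptavidin microbeads. FACS then separated cells into low and high (top ~1%) gates by anti-HA (expression) and streptavidin (reagent binding) fluorescence. Genes were colony-PCR amplified, MiSeq 2 × 250 sequenced and CDR-length filtered. A clone's polyreactivity label is that of its gate of origin.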", "values": [
      {"sequence": "QVQLVESGGGLVQAGGSLRLSCAASGSIFRYYVMGWYRQAPGKERELVAAITGGGGSTYYADSVKGRFTISRDNAKNTVYLQMNSLKPEDTAVYYCATATYVGVYWEYDYWGQGTQVTVSS", "polyreactivity (PSR sort gate)": "low polyreactivity"},
      {"sequence": "QVQLVESGGGLVQAGGSLRLSCAASGSIFRYYVMGWYRQAPGKERELVASISYSVGRTYYADSVKGRFTISRDNAKNTVYLQMNSLKPEVTAVYYCAADRYWPYYSAYYTSYRMDYWGKGTQVTVSS", "polyreactivity (PSR sort gate)": "high polyreactivity"},
      {"sequence": "QVQLVESGGGLVQAGGSLRLSCAASGSIFRYYVTGWYRQAPGKERELVATISSSGGRTYYADSVKGRFTISRDNAKNTVYLQMNSLKPEDTAVYYCNARTSPYSGYSGRYYWGQGTQVTVSS", "polyreactivity (PSR sort gate)": "high polyreactivity"},
      {"sequence": "QVQLVESGGGLVQAGGSLRLSCAASGSIFSANAMGWYRQAPGKERELLAAISSSGNTNYADSVKGRFTISRDNAKNTVYLQMNSLKPEDTAVYYCAVELKQVTPGLGYITLDYWGQGTQVTVSS", "polyreactivity (PSR sort gate)": "low polyreactivity"},
      {"sequence": "QVQLVESGGGLVQAGGSLRLSCAASGSIFSAYAMGWYRQAPGKEREIVASITWSGGSTYYADSVKGRFTISRDNAKNTVYLQMNSLKPEDTAVYYCAAVYVTWYNNYEYWGQGTQVTVSS", "polyreactivity (PSR sort gate)": "high polyreactivity"},
      {"sequence": "QVQLVESGGGLVQAGGSLRLSCAASGSIFSAYVMGWYRQAPGKERELVAAITRSGGSTYYADSVKGRFTISRDNAKHTVYLQMNSLKPEDTAVYYCAAKSIIRPYAPRRDDMDYWGQGTQVTVSS", "polyreactivity (PSR sort gate)": "low polyreactivity"},
      {"sequence": "QVQLVESGGGLVQAGGSLRLSCAASGSIFSDYAMGWYRQAPGKERELVAAITQSGGSTYADSVKGRFTISRDNAKNTVYLQMNSLKPEDTAVYYCAADEVPGFGYPPYPWFDYWGQGTQVTVSS", "polyreactivity (PSR sort gate)": "low polyreactivity"},
      {"sequence": "QVQLVESGGGLVQAGGSLRLSCAASGSIFSDYGMGWYRQAPGKERELVAGISWNGTSTYYADSVKGRFTISRDNAKNTVYLQMNSLKPEDTAVYYCAATFEGGISDLLDLDYWGQGTQVTVSS", "polyreactivity (PSR sort gate)": "low polyreactivity"},
      {"sequence": "QVQLVESGGGLVQAGGSLRLSCAASGSIFSENTMGWYRQAPGTKREWVADITSGGSTNYADSVKGRFTISRDNAKNTVYLQMNSLKPEDTAVYYCAVPGRLYAHPQGYDYWGQGTQVTVSS", "polyreactivity (PSR sort gate)": "low polyreactivity"},
      {"sequence": "QVQLVESGGGLVQAGGSLRLSCAASGSIFSFYAMGWYRQAPGKERELVAAIRYSRGSTYYADSVKGRFTISRDNAKNTVYLQMNSLKPEDTAVYFCAARGGSRRFQSQAYSLPRYDYWGQGTQVTVSS", "polyreactivity (PSR sort gate)": "high polyreactivity"},
      {"sequence": "QVQLVESGGGLVQAGGSLRLSCAASGSIFSFYAMGWYRQAPGKERELVADISLTTDSTYADSVKGRFTISRDNAKNTVYLQMNSLKPEDTAVYYCAADGSNWEYDYWGQGTQVTVSS", "polyreactivity (PSR sort gate)": "low polyreactivity"},
      {"sequence": "QVQLVESGGGLVQAGGSLRLSCAASGSIFSGNAMGWYRPAPGKERELVAAISSNGGRTYYADSVKGRFTISRDNAKNTVYLQMNSLKPEDTAVYYCAADYGKRRYGYYYWGQGTQVTVSS", "polyreactivity (PSR sort gate)": "high polyreactivity"},
      {"sequence": "QVQLVESGGGLVQAGGSLRLSCAASGSIFSGNAMGWYRQAPGKVRELVAAISRSGGSTYYADSVKGRFTISRDNAKNTVYLQMNSLKPEDTAVYYCAAYRTHGPPRAIRFDYWGQGTQVTVSS", "polyreactivity (PSR sort gate)": "high polyreactivity"},
      {"sequence": "QVQLVESGGGLVQAGGSLRLSCAASGSIFSGWYTMGWYRQAPGKERELVASISISTTDTYYADSVKGRFTISRDNAKNTVYLQMNSLKPEDTAVYYCADEVTSFSFGGDATEYYWGQGTQVTVSS", "polyreactivity (PSR sort gate)": "low polyreactivity"},
      {"sequence": "QVQLVESGGGLVQAGGSLRLSCAASGSIFSGYAMGWYRQAPGKERELVAAISTSSVRTYYADSVKGRFTISRDNAKNTVYLQMNSLKPEDTAVYYCAARDGGSYTPMYYWGHGTQVTVSS", "polyreactivity (PSR sort gate)": "high polyreactivity"},
      {"sequence": "QVQLVESGGGLVQAGGSLRLSCAASGSIFSGYAMGWYRQAPGKERELVAAITRSGGRTYYADSVKGRFTISRDNAKNTVYLQMNSLKPEDTAVYYCATLPRYYGYWGQGTQVTVSS", "polyreactivity (PSR sort gate)": "high polyreactivity"},
      {"sequence": "QVQLVESGGGLVQAGGSLRLSCAASGSIFSGYAMGWYRQAPGKERELVAAITSGGSTDYADSVKGRFTISRDNAKNSVYLQMNSLKPEDTAVYYCAAEGGYSSYGYDYWGQGTQVTVSS", "polyreactivity (PSR sort gate)": "low polyreactivity"},
      {"sequence": "QVQLVESGGGLVQAGGSLRLSCAASGSIFSGYAMGWYRQAPGKERELVAALTRSGGRTYYADSVKGRFTISRDNAKNTVYLQMNSLKPEDTSVYYCATLPRYYGYWGQGTQVTVSS", "polyreactivity (PSR sort gate)": "high polyreactivity"},
      {"sequence": "QVQLVESGGGLVQAGGSLRLSCAASGSIFSGYTMGWYRQAPGKERELVAGISYRGGSTYYADSVKGRFTISRDNAKNTVYLQMNSLKPEDTAVYYCAALYYRRGSLNYEYWGQGTQVTVSS", "polyreactivity (PSR sort gate)": "high polyreactivity"},
      {"sequence": "QVQLVESGGGLVQAGGSLRLSCAASGSIFSGYVMGWSRQAPGKERELVAAISGSGGSTYYADSVKGRFTISRDNAKNTVYLQMNSLNPEDTAVYYCNKGLSRSYWWVDYWGQGTQVTVSS", "polyreactivity (PSR sort gate)": "low polyreactivity"},
      {"sequence": "QVQLVESGGGLVQAGGSLRLSCAASGSIFSGYVMGWYRQAPGKERELVAAISGSGGSTYYADSVKGRFTISRDNAKNTVYLQMNSLKPEDTAVYYCNKGLSRSYWWVDYWGQGTQVTVSS", "polyreactivity (PSR sort gate)": "low polyreactivity"},
      {"sequence": "QVQLVESGGGLVQAGGSLRLSCAASGSIFSHNAMGWYRQAPGKERELVAAITGIVGSTYYADSVKGRFTISRDTAKNTVYLQMNSLNPEDTAVYYCAADNPVPEGSRTFEYWGQGTQVTVSS", "polyreactivity (PSR sort gate)": "low polyreactivity"},
      {"sequence": "QVQLVESGGGLVQAGGSLRLSCAASGSIFSINTMGWYRQAPGKERELVAAISRTGGSTYYADSVKGRFTISRDNAKNTVYLQMNSLKPEDTAVYYCAARKYADGRIFYYWGQGTQVTVSS", "polyreactivity (PSR sort gate)": "high polyreactivity"},
      {"sequence": "QVQLVESGGGLVQAGGSLRLSCAASGSIFSIYAMGWYRQAPGKERELVAAIDSGTSTTYADSVKGRFTISRDNAKNTVYLQMKSLKPEDTAVYYCAAALYSDVAAVATYGYYWGQGTQVTVSS", "polyreactivity (PSR sort gate)": "low polyreactivity"},
      {"sequence": "QVQLVESGGGLVQAGGSLRLSCAASGSIFSKNAIGWYRQAPGKERELVATISRSGGSTYYADSVKGRFTISRDNAKNTVYLQMNSLKPDDSAVYYCNRDTRYYWKRYGYWGQGTQVTVSS", "polyreactivity (PSR sort gate)": "high polyreactivity"},
      {"sequence": "QVQLVESGGGLVQAGGSLRLSCAASGSIFSKNAMGWYRQAPGKERELLAAITLNGGSTYYADSVKGRFTNSRDNAKNTVYLQMNSLKPEDTSVFYFAKSDRQWWGYYYQFDYLGQGTQVTVSS", "polyreactivity (PSR sort gate)": "low polyreactivity"},
      {"sequence": "QVQLVESGGGLVQAGGSLRLSCAASGSIFSKYAMGWYRQAAGKERELVAGISCSGGSTYYADSVNGRFTISRDNAQITVYLQINSLKPEDTAVYYCAVGIPYRGRQGYYGYYSYDYWGQGTHVTVSS", "polyreactivity (PSR sort gate)": "high polyreactivity"},
      {"sequence": "QVQLVESGGGLVQAGGSLRLSCAASGSIFSKYAMGWYRQAPGKERELVAAISWSGTSTYYADSVKGRFTISRDNAKNTVYLQMNSLKPEDTAVYYCAASSPRSLSLLGYWGQGTQVTVSS", "polyreactivity (PSR sort gate)": "low polyreactivity"},
      {"sequence": "QVQLVESGGGLVQAGGSLRLSCAASGSIFSLNAMGWYRQAPGKERELVAASGGGSTYYADSVKGRFTISRDNAKNTVYLQMNSLKPEDSAVYYCAARVLTDELDYWGQGTQVTVSS", "polyreactivity (PSR sort gate)": "low polyreactivity"},
      {"sequence": "QVQLVESGGGLVQAGGSLRLSCAASGSIFSLYAMGWYRQAPGKERELVAAISQSGDSTFYADSVKGRFTISRDHAKNTVYLQMNSLKPEYTAVSYCAADPRNKAWKWDDYWGQGTQVTVSS", "polyreactivity (PSR sort gate)": "low polyreactivity"},
      {"sequence": "QVQLVESGGGLVQAGGSLRLSCAASGSIFSNNAMGWYRQAPGKERELVAAISRSGTNTYYADSVKGRFTISRDNAKNTVYLQMNSLKPEDTAVEYCAARGVYVKYYYWGQGTQVTVSS", "polyreactivity (PSR sort gate)": "high polyreactivity"},
      {"sequence": "QVQLVESGGGLVQAGGSLRLSCAASGSIFSNYAMGWYRQAPGKERELVAAISRNGGSTSYADSVKGRFTISRDNAKNTVYLQMNSLKPEDTAVYYCAAVYVTGSYRYGYWGQGTQVTVSS", "polyreactivity (PSR sort gate)": "high polyreactivity"},
      {"sequence": "QVQLVESGGGLVQAGGSLRLSCAASGSIFSNYAMGWYRQAPGKERELVAAITLSSGGTYYADSVKGRFTISRDNAKNTVYLQMNSLKPEDTAVYYCAAQYKYFIHRYYYWGQGTQVTVSS", "polyreactivity (PSR sort gate)": "high polyreactivity"},
      {"sequence": "QVQLVESGGGLVQAGGSLRLSCAASGSIFSPYAMGWYRQAPGKERELVAAISYGVGNTYYADSVKGRFTISRDNAKNTVYLQMNSLIPEDTAVYYCAAEEYDYVFPHYFTKGYYWGQGTQVTVSS", "polyreactivity (PSR sort gate)": "high polyreactivity"},
      {"sequence": "QVQLVESGGGLVQAGGSLRLSCAASGSIFSPYAMGWYRQAPGKERELVAAITWSGGSTYYADSVKGRFTISRDNAKNTVYLQMNSLKPEDTAVYYCAATYYVNAWRYYYWGQGTQVTVSS", "polyreactivity (PSR sort gate)": "high polyreactivity"},
      {"sequence": "QVQLVESGGGLVQAGGSLRLSCAASGSIFSQYAMGWYRQAPGKERELVAAIRTGGRTHYADSVKGRFTISRDNAKKTVYLQMNSLKPEDTAVYYCAAQARYYWGTTYEYWGQGTQVTVSS", "polyreactivity (PSR sort gate)": "high polyreactivity"},
      {"sequence": "QVQLVESGGGLVQAGGSLRLSCAASGSIFSQYAMGWYRQAPGKERELVAAITSSGGRTYYADSVKGRFTISRDNAKNTVYLQMNSLKPEDTAVYYCAARPYSKRHEYWGQGTQVTVSS", "polyreactivity (PSR sort gate)": "high polyreactivity"},
      {"sequence": "QVQLVESGGGLVQAGGSLRLSCAASGSIFSQYVMGWYRQAPGKERELVAAISWSGGHTYYADSVKGRFTISRDNAKNTVYLQMNSLKPEDTAVYYCATVPRKTPGNAELDYWGQGTQVTVSS", "polyreactivity (PSR sort gate)": "high polyreactivity"},
      {"sequence": "QVQLVESGGGLVQAGGSLRLSCAASGSIFSQYVMGWYRQAPGKERELVAAISWSGGHTYYADSVKGRFTISRDNAKNTVYLQMNSLKPEDTAVYYCRAFFRRDYWGQGTQVTVSS", "polyreactivity (PSR sort gate)": "high polyreactivity"},
      {"sequence": "QVQLVESGGGLVQAGGSLRLSCAASGSIFSRNAMGWYRQAPGKERELVAAITGSGSSTYYADSVKGRFTISRDNAKNTVYLQMNSLKPEDSAVYYCNAARVYLSEWGQGTQVTVSS", "polyreactivity (PSR sort gate)": "high polyreactivity"},
      {"sequence": "QVQLVESGGGLVQAGGSLRLSCAASGSIFSRNAMGWYRQAPGKERELVAGISTGGSTNYADSVKGRFTISRDNAKNTVYLQMNSLKPEDTAVYYCAAPLAYEGDDWGQGTQLTVSS", "polyreactivity (PSR sort gate)": "low polyreactivity"},
      {"sequence": "QVQLVESGGGLVQAGGSLRLSCAASGSIFSRYAMGWYRQAPGKERELVAAITWSGGSTYYADSVKGRFTISRDNAKNTVYLQMNSLKPEDTAVYYCAAVGYAPYNHRYDYWGQGTQVTVSS", "polyreactivity (PSR sort gate)": "low polyreactivity"},
      {"sequence": "QVQLVESGGGLVQAGGSLRLSCAASGSIFSSNAMGWYIQAPGKERELVAAITYSGGSTYYADSVKGRFTISRDNAKNTVYLQMNSLKPEDTAVYYCAADNGNWYDGYSYDYWGQGTQVTVSS", "polyreactivity (PSR sort gate)": "low polyreactivity"}
    ]}
  ]
}
